Experimental findings from article PMC11201429 are described below.

This series has as its target thrombin (human alpha-thrombin not specified) (human, UniProt P00734;P00734 328-363;364-622). The series can be described thus: QCM-D; aptamer immobilised on streptavidin/biotin-PE/POPC bilayer; thrombin 1-25 ug/mL, shift 3 to 81 Hz; LOD 29 nM (not a Kd); PBS with CaCl2 and MgCl2 (concentrations not given), 0.1% BSA, 37 C; aptamer 0.5 uM loaded, heated to 95 C for 5 min and cooled to RT.

Take CGCCTAGGTTGGGTAGGGTGGTGGCG (structured_DNA, 5'-biotin) [NU172 thrombin aptamer]: the binding result was “binds”.
